Experimental data from article PMC8059062.

Tests used:
Experiment in all cases: co-purification after bacterial coexpression, molar ratio by rpHPLC; (Ca2+)4-CaM copurified with His-GST-tagged FGF NTD fragments; complexes separated on a C-18 column, ratio from peak areas at 220 nm
[1] = target: FGF14ANTD (FGF14A N-terminal domain, aa 1-68) (human) (UniProt Q92915)
[2] = target: FGF12ANTD (FGF12A N-terminal domain, aa 1-70) (human) (UniProt P61328)
[3] = target: FGF11ANTD (FGF11A N-terminal domain, aa 1-68) (human) (UniProt Q92914)
[4] = target: FGF13ANTD (FGF13A N-terminal domain, aa 1-66) (human) (UniProt Q92913)
Sequence of FGF13ANTD (FGF13A N-terminal domain, aa 1-66) (human) (Q92913 other isoform, or with tags, fused parts or gaps): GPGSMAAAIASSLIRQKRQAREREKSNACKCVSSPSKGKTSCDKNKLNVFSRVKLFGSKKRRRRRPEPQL

Sequence of FGF14ANTD (FGF14A N-terminal domain, aa 1-68) (human) (Q92915 other isoform, or with tags, fused parts or gaps): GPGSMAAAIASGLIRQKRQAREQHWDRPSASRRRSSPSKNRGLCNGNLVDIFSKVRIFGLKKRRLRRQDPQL
Sequence of FGF11ANTD (FGF11A N-terminal domain, aa 1-68) (human) (Q92914 other isoform, or with tags, fused parts or gaps): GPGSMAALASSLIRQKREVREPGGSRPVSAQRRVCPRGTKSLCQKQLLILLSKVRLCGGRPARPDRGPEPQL
Sequence of FGF12ANTD (FGF12A N-terminal domain, aa 1-70) (human) (P61328 other isoform, or with tags, fused parts or gaps): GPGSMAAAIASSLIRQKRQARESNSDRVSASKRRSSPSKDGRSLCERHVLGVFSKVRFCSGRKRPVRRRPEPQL

- stoichiometry N ((Ca2+)4-CaM per FGF NTD) [1]: 1
- stoichiometry N ((Ca2+)4-CaM per FGF NTD) [2]: 1
- stoichiometry N ((Ca2+)4-CaM per FGF NTD) [3]: 1
- stoichiometry N ((Ca2+)4-CaM per FGF NTD) [4]: 1
Substance: calmodulin, wild type, full-length (aa 1-148) (from UniProt P0DP23 1-149) (natural protein)
